Data taken from patent publication US20170275357A1 (Bristol-Myers Squibb, published 2017).
Where two headings read alike, the source gives them in different places.

T1: human IL-17F homodimer (human, UniProt Q96PD4 31-163)
T1 sequence: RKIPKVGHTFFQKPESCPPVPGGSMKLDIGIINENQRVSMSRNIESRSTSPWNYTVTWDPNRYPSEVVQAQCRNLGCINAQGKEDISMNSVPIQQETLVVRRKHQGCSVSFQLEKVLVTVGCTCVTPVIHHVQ

B1: humanized anti-human IL-17A/F antibody 339-134 mAb IgG1.1 (antibody, V domains shown)
VH: QVQLVQSGAEVKKPGASVKVSCKASGYTFNEYTMHWVKQAPGQRLEWMGGINPNSGGVSYNQNFKGKATLTVDTSASTAYMELSSLRSEDTAVYYCARGGDGYYTNYFDIDYWGQGTTVTVSS
VL: DIQMTQSPSSLSASVGDRVTITCSASSSVNYMHWYQQKPGKVPKLLIYDTSKLASGVPSRFSGSGSGTDFTLTISSLQPEDVATYYCQQWNSHPLTFGQGTKLEIKR
notes: IgG1.1/kappa; also called MVC978/MVC717; humanized parent
B2: Fab derived from the IL-17 arms of biAb3 (Lead Fab A3185F) (Fab, V domains shown)
VH: B1 VH
VL: not shown
notes: Expressed periplasmically in E. coli, purified by IMAC (tag not described); also called humanized lead Fab; biAb Fab
B3: hIL-23R-Fc (Fc fusion, human, UniProt Q5VWK5 24-353, looked up)
chain: GITNINCSGHIWVEPATIFKMGMNISIYCQAAIKNCQPRKLHFYKNGIKERFQITRINKTTARLWYKNFLEPHASMYCTAECPKHFQETLICGKDISSGYPPDIPDEVTCVIYEYSGNMTCTWNAGKLTYIDTKYVVHVKSLETEEEQQYLTSSYINISTDSLQGGKKYLVWVQAANALGMEESKQLQIHLDDIVIPSAAVISRAETINATVPKTIIYWDSQTTIEKVSCEMRYKATTNQTWNVKEFDTNFTYVQQSEFYLEPNIKYVFQVRCQETGKRYWQPWSSLFFHKTPETVPQVTSKAFQHDTWNSGLTVASISTGHLTSDNRGD
notes: Bought from R&D Systems; also called human IL-23 receptor; p19 specific IL-23 receptor; not shown: Fc part of the commercial fusion (R&D Systems) not described
B4: wild-type IL-23 (His-tagged p19 / non-tagged p40) (ligand, human)
chain 1: RAVPGGSSPAWTQCQQLSQKLCTLAWSAHPLVGHMDLREEGDEETTNDVPHIQCGDGCDPQGLRDNSQFCLQRIHQGLIFYEKLLGSDIFTGEPSLLPDSPVGQLHASLLGLSQLLQPEGHHWETQQIPSLSPSQPWQRLLLRFKILRSLQAFVAVAARVFAHGAATLSP
chain 2: IWELKKDVYVVELDWYPDAPGEMVVLTCDTPEEDGITWTLDQSSEVLGSGKTLTIQVKEFGDAGQYTCHKGGEVLSHSLLLLHKKEDGIWSTDILKDQKEPKNKTFLRCEAKNYSGRFTCWWLTTISTDLTFSVKSSRGSSDPQGVTCGAATLSAERVRGDNKEYEYSVECQEDSACPAAEESLPIEVMVDAVHKLKYENYTSSFFIRDIIKPDPPKNLQLKPLKNSRQVEVSWEYPDTWSTPHSYFSLTFCVQVQGKSKREKKDRVFTDKTSATVICRKNASISVRAQDRYYSSSWSEWASVPCS
B5: C/DVCV1 IgG1.1 (bispecific antibody)
heavy: QIQLVQSGPELKKPGETVEISCKASGYTFTDYLIFWVKQAPGKGLNWMGWINTETVEPTYADDFKGRFAFSLETSASTAHLLINNLKKEDTSTYFCARVPHLGPYYYAMDYWGQGTSVTVSSASTKGPSVFPLAPSSKSTSGGTAALGCLVKDYFPEPVTVSWNSGALTSGVHTFPAVLQSSGLYSLSSVVTVPSSSLGTQTYICNVNHKPSNTKVDKKVEPKSCGGGGSGGGGSQVTLKESGPGILQPSQTLSLTCSFSGFSLSTSGMGVGWIRQPSGKGLEWLANIWWDDDKRYNPALKSRLTISKDTSSNQVFLKIASVDTADTATYYCARIDYDYDRGAYHVMDYWGQGTSVTVSSEPKSSDKTHTCPPCPAPEAEGAPSVFLFPPKPKDTLMISRTPEVTCVVVDVSHEDPEVKFNWYVDGVEVHNAKTKPREEQYNSTYRVVSVLTVLHQDWLNGKEYKCKVSNKALPSSIEKTISKAKGQPREPQVYTLPPSRDELTKNQVSLTCLVKGFYPSDIAVEWESNGQPENNYKTTPPVLDSDGSFFLYSKLTVDKSRWQQGNVFSCSVMHEALHNHYTQKSLSLSPGK
light: DIVLKQSPASLGVALGQRATISCRASKSVSTSDFSYMHWYQQKPGQPPELLIYLASNLESGVPARFSGSGSGTDFTLNIHPVEEEDAATYYCQHSREFPPTFGAGTKLELKRTVAAPSVFIFPPSDEQLKSGTASVVCLLNNFYPREAKVQWKVDNALQSGNSQESVTEQDSKDSTYSLSSTLTLSKADYEKHKVYACEVTHQGLSSPVTKSFNRGECGGGGSGGGGSDIQMTQSPASLSVSVGETVTITCRTSENIFSNLAWYQQKQGKSPQLLVYDATNLADGVPSRFSGSGSGTQYSLKINSLQSEDFGTYYCQHFWYTPWTFGGGTKLEIK

How the values were obtained:
human IL-17A homodimer [1] = molecular target: T2, human IL-17A homodimer (human, UniProt Q16552 24-155); test: SPR Biacore T100, captured antibody, bivalent analyte model
T2 construct: Recombinant (HEK293, ZymoGenetics); also called hIL-17A; IL-17A A2999F

human IL-17A homodimer [2] = molecular target: T2, human IL-17A homodimer; test: as above; remark: listed apart in the source
[3] = molecular target: T3, human IL-17A/F heterodimer (human, UniProt Q16552 24-155; Q96PD4 31-163); test: cell-based or functional assay
human IL-17A homodimer [4] = molecular target: T2, human IL-17A homodimer; test: cell-based or functional assay
human IL-17F homodimer [5] = molecular target: T1, human IL-17F homodimer; test: cell-based or functional assay
[6] = molecular target: T3, human IL-17A/F heterodimer; test: SPR Biacore T100, captured antibody, bivalent analyte model
human IL-17F homodimer [7] = molecular target: T1, human IL-17F homodimer; test: as above
[8] = molecular target: T3, human IL-17A/F heterodimer; test: cell-based or functional assay; remark: listed apart in the source
human IL-17A homodimer [9] = molecular target: T2, human IL-17A homodimer; test: cell-based or functional assay; remark: listed apart in the source
human IL-17F homodimer [10] = molecular target: T1, human IL-17F homodimer; test: cell-based or functional assay; remark: listed apart in the source
[11] = molecular target: T3, human IL-17A/F heterodimer; test: SPR Biacore T100, captured antibody, bivalent analyte model; remark: listed apart in the source
human IL-17F homodimer [12] = molecular target: T1, human IL-17F homodimer; test: as above; remark: listed apart in the source
[13] = molecular target: T3, human IL-17A/F heterodimer; test: cell-based or functional assay; remark: listed apart in the source
human IL-17A homodimer [14] = molecular target: T2, human IL-17A homodimer; test: cell-based or functional assay; remark: listed apart in the source
human IL-17F homodimer [15] = molecular target: T1, human IL-17F homodimer; test: cell-based or functional assay; remark: listed apart in the source
[16] = molecular target: T3, human IL-17A/F heterodimer; test: cell-based or functional assay; remark: listed apart in the source
human IL-17A homodimer [17] = molecular target: T2, human IL-17A homodimer; test: cell-based or functional assay; remark: listed apart in the source
human IL-17F homodimer [18] = molecular target: T1, human IL-17F homodimer; test: cell-based or functional assay; remark: listed apart in the source
[19] = molecular target: T3, human IL-17A/F heterodimer; test: cell-based or functional assay; remark: listed apart in the source
human IL-17A homodimer [20] = molecular target: T2, human IL-17A homodimer; test: cell-based or functional assay; remark: listed apart in the source
human IL-17F homodimer [21] = molecular target: T1, human IL-17F homodimer; test: cell-based or functional assay; remark: listed apart in the source
[22] = molecular target: T3, human IL-17A/F heterodimer; test: cell-based or functional assay; remark: listed apart in the source
human IL-17A homodimer [23] = molecular target: T2, human IL-17A homodimer; test: cell-based or functional assay; remark: listed apart in the source
human IL-17F homodimer [24] = molecular target: T1, human IL-17F homodimer; test: cell-based or functional assay; remark: listed apart in the source
human IL-17F homodimer [25] = molecular target: T1, human IL-17F homodimer; test: X-ray co-crystal structure
[26] = molecular target: B4; test: SPR (Biacore T100): hIL-23R-Fc captured on protein A, IL-23 (purified wild-type, and wild-type expression supernatant diluted 1:5) injected 3 min; response 10 s before the end of the injection, reference subtracted
[27] = molecular target: human IL-23Rα/human IL-12Rβ1 on BaF3 transfectants (human, UniProt Q5VWK5 24-629; P42701 24-662); test: cell-based or functional assay
human PDGF-D = human PDGF-D (human, UniProt Q9GZP0 250-370, limits assumed); test: cell-based or functional assay
Chain of human PDGF-D (Q9GZP0 250-370 limits assumed): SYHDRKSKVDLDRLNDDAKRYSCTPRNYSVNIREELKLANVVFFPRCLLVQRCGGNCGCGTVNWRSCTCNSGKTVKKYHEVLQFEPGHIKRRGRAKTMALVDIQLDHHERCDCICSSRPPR

human PDGF-C = human PDGF-C (human, UniProt Q9NRA1 235-345, limits assumed); test: cell-based or functional assay
Chain of human PDGF-C (Q9NRA1 235-345 limits assumed): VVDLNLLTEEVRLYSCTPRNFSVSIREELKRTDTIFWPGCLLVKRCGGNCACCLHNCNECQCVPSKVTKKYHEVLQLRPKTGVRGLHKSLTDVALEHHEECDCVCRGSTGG

Binder: B1
- Kd (human IL-17A homodimer [1]): 1 nM
- koff (human IL-17A homodimer [1]): 0.003 s⁻¹
- kon (human IL-17A homodimer [1]): 2e+06 M⁻¹ s⁻¹
- Kd (human IL-17A homodimer [2]): 1 nM
- koff (human IL-17A homodimer [2]): 0.003 s⁻¹
- kon (human IL-17A homodimer [2]): 2e+06 M⁻¹ s⁻¹
- IC50, NIH/3T3/KZ170 NF-kB luciferase reporter [3]: 0.26 nM
- IC50, NIH/3T3/KZ170 NF-kB luciferase reporter (human IL-17A homodimer [4]): 1.4 nM
- IC50, NIH/3T3/KZ170 NF-kB luciferase reporter (human IL-17F homodimer [5]): 0.24 nM
- Kd [6]: 0.2 nM
- koff [6]: 0.0005 s⁻¹
- kon [6]: 2e+06 M⁻¹ s⁻¹
- Kd (human IL-17F homodimer [7]): 0.1 nM
- koff (human IL-17F homodimer [7]): 0.0002 s⁻¹
- kon (human IL-17F homodimer [7]): 2e+06 M⁻¹ s⁻¹
- IC50, G-CSF induction in primary human SAEC [8]: 1.3 nM
- IC50, IL-6 induction in primary human fibroblasts (HFFF) [8]: 13 nM
- IC50, G-CSF induction in primary human SAEC (human IL-17A homodimer [9]): 0.5 nM
- IC50, IL-6 induction in primary human fibroblasts (HFFF) (human IL-17A homodimer [9]): 0.9 nM
- IC50, G-CSF induction in primary human SAEC (human IL-17F homodimer [10]): 1.1 nM
- IC50, IL-6 induction in primary human fibroblasts (HFFF) (human IL-17F homodimer [10]): 15 nM
- Kd [11]: 0.2 nM
- koff [11]: 0.0005 s⁻¹
- kon [11]: 2e+06 M⁻¹ s⁻¹
- Kd (human IL-17F homodimer [12]): 0.1 nM
- koff (human IL-17F homodimer [12]): 0.0002 s⁻¹
- kon (human IL-17F homodimer [12]): 2e+06 M⁻¹ s⁻¹
- IC50, NIH/3T3/KZ170 NF-kB luciferase reporter [13]: 0.23 nM
- IC50, NIH/3T3/KZ170 NF-kB luciferase reporter (human IL-17A homodimer [14]): 1.2 nM
- IC50, NIH/3T3/KZ170 NF-kB luciferase reporter (human IL-17F homodimer [15]): 0.28 nM
- IC50, IL-6 induction in primary human fibroblasts (HFFF) [16]: 22 nM
- IC50, IL-6 induction in primary human fibroblasts (HFFF) (human IL-17A homodimer [17]): 2 nM
- IC50, IL-6 induction in primary human fibroblasts (HFFF) (human IL-17F homodimer [18]): 23 nM
- IC50, NIH/3T3/KZ170 NF-kB luciferase reporter [19]: 0.27 nM
- IC50, NIH/3T3/KZ170 NF-kB luciferase reporter (human IL-17A homodimer [20]): 1.3 nM
- IC50, NIH/3T3/KZ170 NF-kB luciferase reporter (human IL-17F homodimer [21]): 0.24 nM
- IC50, NIH/3T3/KZ170 NF-kB luciferase reporter [22]: 0.9 nM
- IC50, NIH/3T3/KZ170 NF-kB luciferase reporter (human IL-17A homodimer [23]): 3 nM
- IC50, NIH/3T3/KZ170 NF-kB luciferase reporter (human IL-17F homodimer [24]): 0.4 nM

Binder: B2
- binding result (human IL-17F homodimer [25]): binds

Binder: B3
- binding result [26]: binds

Binder: B4
- EC50, pSTAT3 in BaF3/huIL-23Ra/huIL-12Rb1 transfectants [27]: 21 pM

Binder: B5
- IC50, NHLF proliferation (3H-thymidine) (human PDGF-D): 20 nM
- IC50, NHLF proliferation (3H-thymidine) (human PDGF-C): 0.09 nM
